Experiments:
angiopoietin-2 (Ang2) [1] = target: T1, angiopoietin-2 (Ang2) (human, UniProt O15123 68-496, limits assumed); assay: ELISA on rhAng2-coated wells, MRD-MBP fusion, anti-MBP detection; EC50 by 4 parameter fit
T1 construct: Plain and biotinylated Ang2 are kept as one molecule; also called rhAng2; recombinant Ang2
T1 sequence (looked up): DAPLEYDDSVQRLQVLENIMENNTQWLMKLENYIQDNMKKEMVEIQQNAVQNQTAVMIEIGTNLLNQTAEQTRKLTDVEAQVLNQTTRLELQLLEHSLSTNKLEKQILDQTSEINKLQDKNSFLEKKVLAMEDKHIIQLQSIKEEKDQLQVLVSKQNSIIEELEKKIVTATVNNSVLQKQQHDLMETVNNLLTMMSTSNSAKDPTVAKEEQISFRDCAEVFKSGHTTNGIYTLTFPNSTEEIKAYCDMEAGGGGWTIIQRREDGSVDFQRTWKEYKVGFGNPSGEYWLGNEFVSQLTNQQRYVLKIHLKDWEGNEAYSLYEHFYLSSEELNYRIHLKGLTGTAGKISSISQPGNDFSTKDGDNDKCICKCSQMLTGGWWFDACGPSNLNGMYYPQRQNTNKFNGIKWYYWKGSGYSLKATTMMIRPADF
Procedure: (§1) MBP fusion proteins were serially diluted in Blocking buffer and added to wells for 2 hours at RT. After washing (8×300 μl wash buffer), samples were treated with HRP-mouse anti MBP mAb (NEB, cat # E8038S), diluted 1:4000 in Blocking buffer. After incubation for 1 hour at RT, wells were washed (8×300 μl wash buffer) prior to receiving 100 μl of TMB substrate (KPL Laboratories). Color development was stopped with 100 μl of H₂SO₄, and absorbance was read at 450 nm.
(§2) Bound fusion proteins were detected with anti-MBP mAb. Assayed proteins represent mutational variants of the sequence […] […] (L17D) (SEQ ID NO:107). In this series, the motif MDD within L17D was mutated at the first D to all other possible amino acids (except cysteine). Other MRDs tested were “Lm32 KtoS” and a dimer of Lm32 (2×Lm32).

angiopoietin-2 (Ang2) [2] = target: T1, angiopoietin-2 (Ang2); assay: ELISA, MRD-MBP fusions on plate-bound rhAng2, anti-MBP detection
Procedure: as §1, §2

B1: 2×Lm32-MBP fusion (other, not shown: small tags and cut ends)
peptide: PGKGGGSMGAQTNFMPMDNDELLLYEQFILQQGLEGGGSMGAQTNFMPMDNDELLLYEQFILQQGLE
notes: also called Lm32 dimer
- EC50 (angiopoietin-2 (Ang2) [1]): 5 pM
- fold higher affinity than L17D or Lm32 KtoS (angiopoietin-2 (Ang2) [2]): > 10 fold

— patent US20170298106A1 (ZYNGENIA, published 2017)
